Results on six molecules are retold here after patent US20120003668A1, “HIGH RESOLUTION COMPLEX STRUCTURE AND ALLOSTERIC EFFECTS OF LOW MOLECULAR WEIGHT ACTIVATORS ON THE PROTEIN KINASE PDK1” (UNIVERSITAET DES SAARLANDES, priority 2008, published 2012).

Entries after “also recorded” stand apart in the source; their conditions may differ. Non-standard residues stand in square brackets, D forms with d. Residues, ends and D or L forms follow the SMILES beside them. *: point of attachment. Biotin = O=C1N[C@H]2[C@H](CS[C@H]2CCCCC(=O)*)N1; pT = C[C@@H](OP(=O)(O)O)[C@H](N)C(=O)O; pS = N[C@@H](COP(=O)(O)O)C(=O)O Some results are limits rather than exact numbers.

The target of one series is T1, PDK1 CD wt (Homo sapiens, UniProt O15530).
T1 construct: PDK1 CD (50-359), wt (0.35 μM), PDK1 [Phe224Trp] or PDK1 [Thr226Trp] were injected onto the system; GST (N); made in house; host or cells: insect cells
T1 sequence (O15530 50-359): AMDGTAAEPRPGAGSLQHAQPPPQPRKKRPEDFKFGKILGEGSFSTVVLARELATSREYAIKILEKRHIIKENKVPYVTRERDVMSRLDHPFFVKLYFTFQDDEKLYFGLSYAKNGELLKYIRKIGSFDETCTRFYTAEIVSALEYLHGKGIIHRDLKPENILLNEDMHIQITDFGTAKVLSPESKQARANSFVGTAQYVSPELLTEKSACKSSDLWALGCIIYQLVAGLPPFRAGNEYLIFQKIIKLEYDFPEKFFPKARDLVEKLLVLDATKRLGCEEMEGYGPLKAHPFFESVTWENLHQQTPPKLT
Description: Surface plasmon resonance (BiaCore) on biotin-P-HM-S6K chip. In kind it is binding. The following applies: estimated from response units at equilibrium; read-out: Kd of direct binding of PDK1 CD wt to immobilized peptide. The protocol:
Surface Plasmon resonance (BiaCore) and alpha-screen interaction and displacement assays: Binding of GST-PDK1 to a P-HM-polypeptide derived from S6K1 shown in FIG. 6 was analysed by surface plasmon resonance on a BiaCore 3000 system using a streptavidin-coated Sensor chip (SA) and biotin-P-HM-polypeptide, as previously described (Biondi, R. M. et al., Embo. J. 20:4380-4390 (2001). The interaction of His-PDK1 with biotin-PIFtide and the displacement by compounds shown in FIG. 3 was performed using the alpha-screen Ni-Chelate kit (Perkin Elmer) on an Envision 2104 multilabel system (Perkin Elmer).
BiaCore analysis was performed as described previously (Biondi, R. M. et al., Embo. J. 19:979-988 (2000)). […] Since both mutants were performed on the same construct of PDK1, their mass should be very similar and therefore should also produce 600RU when all biotin-(P)HM-S6K polypeptides on the same chip are bound to the mutant PDK1 proteins. Unfortunately, when mutant PDK1 Phe224Trp and PDK1 Thr226Trp were analysed, the injection of the mutants at concentrations higher than 1.3 μM prompted unspecific effects, therefore making difficult the evaluation. […]

Another series relates to PDK1. The experiment in a line: PDK1 protein kinase activity test with T308tide substrate. In kind it is biochemical, human. The protocol:
In brief, PDK1 activity assay was performed at room temperature (22° C.) in a 20 μl mix containing 50 mM Tris pH 7.5, 0.05 mg/ml BSA, 0.1% β-mercaptoethanol, 10 mM MgCl2, 100 μM [γ^32P]ATP (5-50 cpm/pmol), 0.003% Brij, 150 ng PDK1, and T308tide (from 0.1 to 1 mM). […] Experiments were repeated at least twice.

A further series has as its target T2, PDK1 catalytic domain (Homo sapiens, UniProt O15530).
T2 construct: The catalytic domain (CD) of PDK1 50-359 and its mutants
T2 sequence (O15530 50-359): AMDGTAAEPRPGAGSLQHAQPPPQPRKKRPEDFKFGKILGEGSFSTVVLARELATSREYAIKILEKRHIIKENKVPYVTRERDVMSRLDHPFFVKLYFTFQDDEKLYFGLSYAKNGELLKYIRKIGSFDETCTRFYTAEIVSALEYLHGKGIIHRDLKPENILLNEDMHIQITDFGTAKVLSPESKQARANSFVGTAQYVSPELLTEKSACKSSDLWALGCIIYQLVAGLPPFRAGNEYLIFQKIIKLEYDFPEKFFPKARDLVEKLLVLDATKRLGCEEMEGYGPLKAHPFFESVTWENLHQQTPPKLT
The experiment in a line: TNP-ATP fluorescence probing of the ATP binding site conformation. In kind it is biochemical. The following applies: 40 μM TNP-ATP, 15 μM PDK1 catalytic domain. From the text:
Probing the conformation of the ATP binding site in PDK1: The activation of PDK1 by HM-polypeptides and small compounds is due to a change in the conformation of the enzyme. We probed the conformation of the ATP binding site in PDK1 by scanning the steady-state fluorescence of TNP-ATP/PDK1, in the presence or absence of P-HM-polypeptides, PIFtide, or small molecular weight compounds. Data were obtained in a Varian Cary Eclipse spectrofluorometer (excitation λ=479 nm; emission scanning, λ=500-600 nm; excitation slit=10 nm; emission slit=10 nm) at a rate of 200 nm/min, with 150 datapoints/100 nm scanning and 0.3 s averaging time. The incubation was performed at 20° C. in a buffer containing 50 mM Tris pH 7.5, 0.1 mM EDTA, 187 mM NaCl, 40 μM TNP-ATP, 15 μM PDK1 catalytic domain, 1 mM DTT and 1% DMSO. In the absence of PDK1, TNP-ATP produced approximately 1.5 arbitrary units (a.u.) of fluorescence, and the inclusion of PDK1 increased its fluorescence intensity to approximately 3.3 a.u. […] In preliminary tests, inclusion of 2.5 mM MgCl2 in the assay mix produced similar results. Data for each condition are the average of 3 scans.

The next series concerns the target T3, PIFtide.
T3 chain: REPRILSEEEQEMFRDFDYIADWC

The target of series [1] is biotin-P-HM-polypeptide derived from S6K1. Description: SPR (BiaCore), immobilised biotin-P-HM-S6K.
biotin-P-HM-polypeptide derived from S6K1, sequence (peptide, as listed by the source limits assumed): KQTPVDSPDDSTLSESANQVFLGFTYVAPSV
A further series addresses T4, biotin-PIFtide (biotin (position not given)).
T4 construct: Biotinylated PIFtide
T4 peptide: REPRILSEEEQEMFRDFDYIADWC
Description: SPR (BiaCore), immobilised biotin-PIFtide.

Series [2] addresses biotin-P-HM-polypeptide derived from S6K1. The experiment in a line: SPR (BiaCore), biotin-P-HM-S6K chip; injected at 1.8 vs 1.3 µM. (In general: Surface plasmon resonance follows binding to a sensor surface in real time, without labels.)
The target is the same in series [3]. The experiment in a line: SPR (BiaCore), biotin-P-HM-S6K on streptavidin chip; mutant injected at 1.3 or 1.8 µM (which mutant at which concentration is not stated).
Series [4] shares this target. The experiment in a line: SPR (BiaCore 3000), biotin-P-HM-S6K on streptavidin chip.
The target is the same in series [5]. Description: SPR (BiaCore 3000), biotin-P-HM-S6K on streptavidin chip, equilibrium responses.

As a reminder, the Kd is the concentration at which binding is half-saturated. As to `CC(C)C[C@H](NC(=O)[C@H](Cc1ccccc1)NC(=O)[C@@H](NC(=O)[C@H](CCC(N)=O)NC(=O)[C@H](CC(N)=O)NC(=O)[C@H](C)NC(=O)[C@H](CO)NC(=O)[C@H](CCC(=O)O)NC(=O)[C@H](CO)NC(=O)[C@H](CC(C)C)NC(=O)[C@@H](NC(=O)[C@H](CO)NC(=O)[C@H](CC(=O)O)NC(=O)[C@H](CC(=O)O)NC(=O)[C@@H]1CCCN1C(=O)[C@H](COP(=O)(O)O)NC(=O)[C@H](CC(=O)O)NC(=O)[C@@H](NC(=O)[C@@H]1CCCN1C(=O)[C@@H](NC(=O)[C@H](CCC(N)=O)NC(=O)[C@H](CCCCN)NC(=O)CCCC[C@@H]1SC[C@@H]2NC(=O)N[C@@H]21)[C@@H](C)O)C(C)C)[C@@H](C)O)C(C)C)C(=O)NCC(=O)N[C@@H](Cc1ccccc1)C(=O)N[C@H](C(=O)N[C@@H](Cc1ccc(O)cc1)C(=O)N[C@H](C(=O)N[C@@H](C)C(=O)N1CCC[C@H]1C(=O)N[C@@H](CO)C(=O)N[C@H](C(=O)O)C(C)C)C(C)C)[C@@H](C)OP(=O)(O)O` [biotin-P-HM-S6K] (Biotin-KQTPVD[pS]PDDSTLSESANQVFLGF[pT]YVAPSV-OH; N-terminus and C-terminus assumed), the Kd at PDK1 CD wt is 0.5 µM.

A word on the Km: it is the concentration of substrate that gives half-maximal velocity. For “KTFCGTPEYLAPEVRR [T308tide, polypeptide substrate of PDK1 derived from the PDK1 phosphorylation site on PKB]”, the Km with PDK1 (estimated, 22° C.) is more than 10 mM.

Consider `O=C(O)/C=C(\CCc1ccc(Br)cc1F)c1ccccc1` [PS133], for which the “activation of PDK1” value in the series on PDK1 (T308tide as substrate) was “nor did they activate PDK1”. Besides, at PDK1 catalytic domain, the “effect on TNP-ATP fluorescence intensity in the presence of PDK1” value is “did not produce any decrease; also recorded: did not affect”.

B1: PDK1 CD (50-359) [Phe224Trp] (enzyme)
chain: AMDGTAAEPRPGAGSLQHAQPPPQPRKKRPEDFKFGKILGEGSFSTVVLARELATSREYAIKILEKRHIIKENKVPYVTRERDVMSRLDHPFFVKLYFTFQDDEKLYFGLSYAKNGELLKYIRKIGSFDETCTRFYTAEIVSALEYLHGKGIIHRDLKPENILLNEDMHIQITDWGTAKVLSPESKQARANSFVGTAQYVSPELLTEKSACKSSDLWALGCIIYQLVAGLPPFRAGNEYLIFQKIIKLEYDFPEKFFPKARDLVEKLLVLDATKRLGCEEMEGYGPLKAHPFFESVTWENLHQQTPPKLT
notes: also called PDK1[Phe224Trp]; PDK1 Phe224Trp
Take B1: the “PDK1 activity, T308tide as substrate” value with PIFtide is “the wild type protein and PDK1[Phe224Trp] were activated by PIFtide”. Besides, the “stated: activates; PDK1 activity (%) with T308tide as substrate” value in the series with PIFtide was “The bar without PIFtide is at 100 %. The two hatched PIFtide bars (labelled 2.5 and 40 µM) are both between 440 and 480 %”. Further, the percent of maximal binding of the wild type protein is 50% in series [1] and approximately 50% with biotin-PIFtide. Besides, the figures for the response units in [2] and in series [3] were 200 RU and more than 200 RU, respectively.

B2: PDK1 CD (50-359) [Thr226Trp] (enzyme)
chain: AMDGTAAEPRPGAGSLQHAQPPPQPRKKRPEDFKFGKILGEGSFSTVVLARELATSREYAIKILEKRHIIKENKVPYVTRERDVMSRLDHPFFVKLYFTFQDDEKLYFGLSYAKNGELLKYIRKIGSFDETCTRFYTAEIVSALEYLHGKGIIHRDLKPENILLNEDMHIQITDFGWAKVLSPESKQARANSFVGTAQYVSPELLTEKSACKSSDLWALGCIIYQLVAGLPPFRAGNEYLIFQKIIKLEYDFPEKFFPKARDLVEKLLVLDATKRLGCEEMEGYGPLKAHPFFESVTWENLHQQTPPKLT
notes: also called PDK1[Thr226Trp]; PDK1 Thr226Trp
Take B2: the “PDK1 activity, T308tide as substrate” value with PIFtide was “PDK1[Thr226Trp] was not activated by PIFtide”. The “stated: no activation; PDK1 activity (%) with T308tide as substrate” value in the series with PIFtide is “The bar without PIFtide is at 100 %. The two hatched PIFtide bars (labelled 2.5 and 40 µM) stay at about 100 %”. In addition, the percent of maximal binding of the wild type protein in series [1] is 50%; in the series with biotin-PIFtide, approximately 50%. Besides, the figures for the response units in series [2] and in [3] were 200 RU and more than 200 RU, respectively.

B3: PDK1 CD (50-359) wt (enzyme)
chain: GPMDGTAAEPRPGAGSLQHAQPPPQPRKKRPEDFKFGKILGEGSFSTVVLARELATSREYAIKILEKRHIIKENKVPYVTRERDVMSRLDHPFFVKLYFTFQDDEKLYFGLSYAKNGELLKYIRKIGSFDETCTRFYTAEIVSALEYLHGKGIIHRDLKPENILLNEDMHIQITDFGTAKVLSPESKQARANSFVGTAQYVSPELLTEKSACKSSDLWALGCIIYQLVAGLPPFRAGNEYLIFQKIIKLEYDFPEKFFPKARDLVEKLLVLDATKRLGCEEMEGYGPLKAHPFFESVTWENLHQQTPPKLTA
notes: also called PDK1 50-359; PDK1 CD wt
Turning to B3, in the series with PIFtide, the “PDK1 activity, T308tide as substrate” value is “the wild type protein and PDK1[Phe224Trp] were activated by PIFtide”; the “stated: activates; PDK1 activity (%) with T308tide as substrate” value is “The bar without PIFtide is at 100 %. The two hatched PIFtide bars (labelled 2.5 and 40 µM) are both between 350 and 400 %, with little difference between them”. Besides, the percent of maximal binding of the wild type protein in series [1] is 50%. In addition, in the series with biotin-PIFtide, the “percent of maximal binding of the wild type protein” value is approximately 50%. Besides, in [4], the response units at maximum binding (PDK1 injected at 5.4 µM) was 600 RU. Also, in series [5], the Kd was 0.5 µM.
